Reference: patent US20260327578A1, “TRANSGLUTAMINASES AND USES THEREOF” (CURIE CO. INC., priority 2023, published 2026)

Assays:
[1] = Thermal stability at 55 °C, specific activity by colorimetric hydroxamate assay; assay type: biochemical
Protocol: Tgase activity was measured herein using a colorimetric hydroxamate activity assay (Folk and Cole (1965) J Biol Chemistry 240 (7): 2951-2960). Briefly, the hydroxamate assay uses N-benzyloxycarbonyl-L-glutaminyl-glycine (ZQG) as a low molecular weight amine acceptor substrate and hydroxylamine as an amine donor. In the presence of catalytically active Tgase, the hydroxylamine is incorporated to form Z-glutamylhydroxamate-glycine, which develops a colored complex with iron (III), detectable at 525 nm after incubation at 37° C. for 5-200 minutes. The calibration was performed using L-glutamic acid gamma-monohydroxamate (Millipore® Sigma®) as a standard. One unit of Tgase was defined as the amount of enzyme that catalyzes formation of 1 μmol of the peptide derivative of gamma-glutamylhydroxylamine per minute. Activity of Tgase variants is depicted in Tables 2-4.
A commercially available wild-type Tgase (Ajinimoto®, Activa® TI formulation) formulated at 0.75-1.0% enzyme in maltodextrin was purchased from Amazon.com and dissolved in water at 20% w/v. The concentration of the mature Tgase in the solution was confirmed by high-performance liquid chromatography (HPLC) and the sample was further diluted to 0.1 g/L of enzyme. Following dilution, the enzyme was subjected to the hydroxamate assay as described in Example 4 to determine specific activity. The specific activity of the commercial wild-type Tgase compared to Tgase variant A3 (SEQ ID NO: 4), further comprising an N-terminal methionine, is shown in FIG. 1.
The thermal stability of Tgase variant A3 (SEQ ID NO: 4) compared to the commercial wild-type Tgase was evaluated by incubating the samples at 55° C. and testing the enzyme concentration and activity at various timepoints. Six timepoints were tested: 0, 30, 60, 120, 240, and 480 minutes.
The enzyme concentration was measured by HPLC. The samples were diluted 10-fold in 50 mM phosphate pH 7.4, 100 mM NaCl. The samples were tested by reverse phase using a Zorbax SB300-C8 column with 0.1% trifluoroacetic acid in water (MPA) and 0.08% trifluoroacetic acid in acetonitrile (MPB).
The activity was determined using the colorimetric activity assay described in Example 4A. The specific activity (U/mg) of the samples was calculated using the concentration of each sample as determined per Example 4D (results shown in Table 10).

E. coli = assay: Preservative efficacy in body lotion against E. coli; assay type: cell-based; details: 0.005% in combinations, phenoxyethanol 0.7% alone, 0.3% combined, caprylyl glycol 0.7% alone, 0.35% combined, sodium benzoate 0.5% + EDTA 0.5%, 2% 2:1 propanediol:hexanediol, 0.5% CHA solution
Protocol: (§1) A vessel was filled with deionized water, placed under an overhead stirrer set to moderate mixing, and heated to 75-80° C. Glycerin was added to 2% and mixed until dissolved, followed by xanthan gum to 0.2%. At 75-80° C., cetearyl glucoside and cetearyl alcohol were added to 4% and 3%. Once both had melted fully, milk thistle seed oil was added and the batch was homogenized with a Silverson homogenizer with the standard emulsion screen until the batch had turned milky white. The batch was removed from heat and returned to propellor mixing with decreased speed to allow the emulsion to set up. At 40° C., pH was adjusted to pH 5.5-6.0 using citric acid or sodium hydroxide and split into several portions and allowed to finish cooling. Once cooled to room temperature, one portion of the body lotion was left unpreserved and the remaining portions were preserved with one or more substances selected from aseptilase, phenoxyethanol, caprylyl glycol, sodium benzoate, and EDTA. All samples were inoculated with E. coli (10^6 CFU/mL) and C. albicans (10^5 CFU/mL) and plated after 2 and 7 days.

C. albicans = assay: Preservative efficacy in body lotion against C. albicans; assay type: cell-based; details: 0.005% in combinations, phenoxyethanol 0.7% alone, 0.3% combined, caprylyl glycol 0.7% alone, 0.35% combined, sodium benzoate 0.5% + EDTA 0.5%, 2% 2:1 propanediol:hexanediol, 0.5% CHA solution
Protocol: as §1

collagen = assay: Collagen-modifying activity with FITC-gelatin or FITC-cadaverine; assay type: biochemical; details: 16 hours, pH 7.4
Protocol: Substrate specificity for collagen of Tgase variant A3 (SEQ ID NO: 4) was tested by allowing the variant to react with either fluorescein-labeled gelatin (FITC-Gelatin, to test protein-protein cross-linking) or fluorescein-labeled cadaverine (FITC-cadaverine, to test protein-small molecule cross-linking) with a collagen layer deposited on the bottom of a 96-well microtiter plate. Tgase variant A3 (SEQ ID NO: 4) and wild-type Tgase were diluted to 4-800 ppm in 50 mM phosphate buffer, pH 7.4, supplemented with 100 mM NaCl in 96-well collagen coated microtiter plates. Either FITC-gelatin or FITC-cadaverine was added to 1 g/L (final volume 100 μL) and the plates were sealed and incubated at either 37° C. or 50° C. for 16 hours. The reaction supernatants were carefully removed and then 200 μL 50 mM [COMPOUND LEFT OUT] mM NaCl, pH 7.4 buffer was added gently against the side of each well then carefully removed. This wash step was repeated. The plate-bound material was extracted by vigorously pipetting 100 μL dimethylsulfoxide into each well, then the extract was transferred into a black bottom 96-well plate. The fluorescence of the samples was measured at an excitation wavelength of 487 nm and an emission wavelength of 528 nm. The fluorescence signal is assumed to be proportionate to the concentration of fluorescent product extracted from the surface of the plate. For both FITC-gelatin and FITC-cadaverine, the fluorescence response per concentration enzyme was higher for wells treated with Tgase variant A3 (SEQ ID NO: 4) than for wells treated with wild-type Tgase (Table 11).

B1: A3: Tgase variant S2P Q50S Q74A K91H Q124L K151R K152R N282M G283A relative to SEQ ID NO: 2 (protein, UniProt P81453 77-407, looked up, variant S2P Q50S Q74A K91H Q124L K151R K152R N282M G283A)
Protein-glutamine …: DPDDRVTPPAEPLDRMPDPYRPSYGRAETVVNNYIRKWQQVYSHRDGRKSQMTEEQREWLSYGCVGVTWVNSGAYPTNRLAFASFDEDRFHNELKNGRPRSGETRAEFEGRVAKESFDEEKGFLRAREVASVMNRALENAHDESAYLDNLRRELANGNDALRNEDARSPFYSALRNTPSFKERNGGNHDPSRMKAVIYSKHFWSGQDRSSSADKRKYGDPDAFRPAPGTGLVDMSRDRNIPRSPTSPGEGFVNFDYGWFGAQTEADADKTVWTHGNHYHAPMASLGAMHVYESKFRNWSEGYSDFDRGAYVITFIPKSWNTAPDKVKQGWP
- Specific activity ([1]; timepoint 0 min): 46.0 U/mg
- Specific activity ([1]; timepoint 30 min): 44.4 U/mg
- Specific activity ([1]; timepoint 60 min): 43.3 U/mg
- Specific activity ([1]; timepoint 120 min): 40.5 U/mg
- Specific activity ([1]; timepoint 240 min): 38.9 U/mg
- Specific activity ([1]; timepoint 480 min): 32.1 U/mg
- portion remaining soluble during the heat treatment ([1]; up to 480 min, compared to wild-type Tgase, HPLC): greater portion
- Preservative efficacy against E. coli, log reduction (E. coli; day 2, aseptilase 0.01% alone): 1.71 log reduction in CFU/mL
- Preservative efficacy against E. coli, log reduction (E. coli; day 7, aseptilase 0.01% alone): 3.45 log reduction in CFU/mL
- Preservative efficacy against C. albicans, log reduction (C. albicans; day 2, aseptilase 0.01% alone): −1.08 log reduction in CFU/mL
- Preservative efficacy against C. albicans, log reduction (C. albicans; day 7, aseptilase 0.01% alone): −1.19 log reduction in CFU/mL
- Fluorescence/[Enzyme] (collagen; FITC-Cadaverine, 37 °C): 20.3 RFU/ppm
- Fluorescence/[Enzyme] (collagen; FITC-Cadaverine, 50 °C): 182.2 RFU/ppm
- Fluorescence/[Enzyme] (collagen; FITC-Gelatin, 37 °C): 8.4 RFU/ppm
- Fluorescence/[Enzyme] (collagen; FITC-Gelatin, 50 °C): 36.9 RFU/ppm
